Experimental data as given in article PMC6720793 (Molecules, 2019).

Target: human β2 microglobulin (Homo sapiens, UniProt P61769)
Sequence (P61769 21-119): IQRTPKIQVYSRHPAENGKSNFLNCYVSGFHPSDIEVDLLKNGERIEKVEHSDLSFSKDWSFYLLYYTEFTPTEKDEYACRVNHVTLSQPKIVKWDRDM

B1: CNb1 (VHH)
chain: QVQLQESGGGSVQAGGSLRLSCAASRCWFRQAPGKEREWVARYYADSVKGRFTFSQDNAKNTVYLQMDSLEPEDTATYYCCWGQGTQVTVSS
Q: B1 was tested. Which Kd did it give?
A: 46 nM
